Experimental data: IntAct's records for PubMed 16293620

The substances below were run against pag_bacan pagA (UniProt P13423).
For “Lethal factor (Bacillus anthracis) (from UniProt P15917) D139A”, the “effect of a mutation on the interaction” value was “decreasing interaction”.
In the case of “Lethal factor (Bacillus anthracis) (from UniProt P15917) D169A”, the “effect of a mutation on the interaction” value is reported as “decreasing interaction”.
“Lethal factor (Bacillus anthracis) (from UniProt P15917) D169K” was tested, and the “effect of a mutation on the interaction” value was “decreasing interaction”.
With “Lethal factor (Bacillus anthracis) (from UniProt P15917) E168A” the “effect of a mutation on the interaction” value was “decreasing interaction”.
“Lethal factor (Bacillus anthracis) (from UniProt P15917) E168K” was tested, and the “effect of a mutation on the interaction” value was “decreasing interaction”.
With “Lethal factor (Bacillus anthracis) (from UniProt P15917) K176A” the “effect of a mutation on the interaction” value was “decreasing interaction”.
In the case of “Lethal factor (Bacillus anthracis) (from UniProt P15917) N173A”, the “effect of a mutation on the interaction” value is reported as “decreasing interaction”.
For “Lethal factor (Bacillus anthracis) (from UniProt P15917) Y141K”, the “effect of a mutation on the interaction” value was “decreasing interaction”.
